Source: paper PMC4100928, “Evolutionary Divergence in the Catalytic Activity of the CAM-1, ROR1 and ROR2 Kinase Domains” (PLoS ONE, 2014)

Tests used:
[1] = molecular target: T1, MuSK ICD (Homo sapiens, UniProt O15146); test: autophosphorylation, anti-phosphotyrosine immunoblot; format: biochemical; settings: 2 mM ATP, 20 mM MgCl2, 0.2 mM orthovanadate, about 18 h at 4 °C
T1 sequence (O15146 519-869): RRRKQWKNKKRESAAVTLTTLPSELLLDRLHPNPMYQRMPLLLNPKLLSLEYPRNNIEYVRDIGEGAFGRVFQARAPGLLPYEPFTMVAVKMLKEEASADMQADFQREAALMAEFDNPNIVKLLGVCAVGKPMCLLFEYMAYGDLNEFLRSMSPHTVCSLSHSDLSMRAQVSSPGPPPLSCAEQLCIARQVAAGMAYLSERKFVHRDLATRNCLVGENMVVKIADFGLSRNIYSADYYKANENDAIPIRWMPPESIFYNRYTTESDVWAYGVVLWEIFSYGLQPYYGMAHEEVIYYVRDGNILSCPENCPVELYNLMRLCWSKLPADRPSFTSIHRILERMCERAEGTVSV

[2] = molecular target: T2, ROR1 ICD (Homo sapiens, UniProt Q01973); test: [gamma-32P]ATP phosphocellulose paper binding assay, initial rates; format: biochemical; settings: 20 mM Mg2+ or 5 mM Mn2+; 5 mM activation loop peptide; 20 °C; limit of assay
T2 sequence (Q01973 428-937): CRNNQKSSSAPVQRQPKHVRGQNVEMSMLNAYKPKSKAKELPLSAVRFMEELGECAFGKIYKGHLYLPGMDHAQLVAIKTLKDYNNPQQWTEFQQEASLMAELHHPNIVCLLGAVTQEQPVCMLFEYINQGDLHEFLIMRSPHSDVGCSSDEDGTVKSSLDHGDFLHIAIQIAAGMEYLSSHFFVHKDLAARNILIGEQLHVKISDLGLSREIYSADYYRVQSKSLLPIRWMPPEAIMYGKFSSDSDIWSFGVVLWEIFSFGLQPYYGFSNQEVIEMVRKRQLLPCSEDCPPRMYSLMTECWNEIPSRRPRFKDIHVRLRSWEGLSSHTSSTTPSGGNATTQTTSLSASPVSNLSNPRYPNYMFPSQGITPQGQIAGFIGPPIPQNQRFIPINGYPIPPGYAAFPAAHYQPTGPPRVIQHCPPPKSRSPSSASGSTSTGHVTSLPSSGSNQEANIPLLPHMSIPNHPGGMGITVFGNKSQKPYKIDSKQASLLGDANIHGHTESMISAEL
Text: (§1) [gamma-32P]ATP phosphocellulose paper binding assay, initial rates on ROR1 ICD

[3] = molecular target: T3, ROR1 ICD (Homo sapiens, UniProt Q01973, C482G); test: as above; format: biochemical; settings: 20 mM Mg2+ or 5 mM Mn2+; 5 mM activation loop peptide; 20 °C; limit of assay
T3 sequence (Q01973 428-937 C482G): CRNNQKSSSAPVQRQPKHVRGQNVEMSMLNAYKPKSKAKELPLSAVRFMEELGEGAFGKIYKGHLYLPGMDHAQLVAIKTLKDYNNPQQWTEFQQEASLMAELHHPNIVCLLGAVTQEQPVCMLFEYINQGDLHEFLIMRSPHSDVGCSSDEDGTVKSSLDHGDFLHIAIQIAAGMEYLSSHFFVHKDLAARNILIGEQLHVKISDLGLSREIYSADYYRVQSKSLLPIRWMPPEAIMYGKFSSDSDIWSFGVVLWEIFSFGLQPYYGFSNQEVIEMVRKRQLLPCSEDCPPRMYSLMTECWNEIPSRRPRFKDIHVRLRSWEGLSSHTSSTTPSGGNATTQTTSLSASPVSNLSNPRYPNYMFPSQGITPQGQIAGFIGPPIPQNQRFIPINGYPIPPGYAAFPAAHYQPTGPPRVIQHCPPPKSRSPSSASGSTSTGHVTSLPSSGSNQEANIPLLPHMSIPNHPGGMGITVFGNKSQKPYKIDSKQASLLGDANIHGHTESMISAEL
Text: as §1

[4] = substrate: Nc1ncnc2c1ncn2[C@@H]1O[C@H](COP(=O)(O)OP(=O)(O)OP(=O)(O)O)[C@@H](O)[C@H]1O; test: as above; format: biochemical, Caenorhabditis elegans; settings: 5 mM activation loop peptide, 20 °C
Text: [gamma-32P]ATP phosphocellulose paper binding assay, initial rates on CAM-1 ICD

[5] = substrate: Nc1ncnc2c1ncn2[C@@H]1O[C@H](COP(=O)(O)OP(=O)(O)OP(=O)(O)O)[C@@H](O)[C@H]1O; test: as above; format: biochemical, Homo sapiens; settings: 20 mM Mg2+ or 5 mM Mn2+, 5 mM activation loop peptide, 20 °C, limit of assay
Text: [gamma-32P]ATP phosphocellulose paper binding assay, initial rates on ROR2 ICD

[6] = phosphorylated enzyme (pre-incubated with ATP/Mg2+) 10 µM, 20 mM Mg2+
[7] = unphosphorylated enzyme 10 µM, 20 mM Mg2+
[8] = 20 mM Mg2+ or 5 mM Mn2+, limit of assay

With `Nc1ncnc2c1ncn2[C@@H]1O[C@H](COP(=O)(O)OP(=O)(O)OP(=O)(O)O)[C@@H](O)[C@H]1O` [ATP] the “autophosphorylation, anti-phosphotyrosine immunoblot” value [1] was “ICDs of receptors ROR1, ROR2, CAM-1 and MuSK were incubated overnight”, the Km [2] was greater than 15 mM and the Km [3] was greater than 15 mM.

B1: CAM-1 ICD (Caenorhabditis elegans; K624R) (protein)
chain: RAKKKSQKTRHQNAHCSSAPSVINSAANSAYYRKLNGTSTPIMGRVPPHVEMTSLLPSAQHLGPPPYPMDQHLQQARRFPSQEPIDDNSYKVFEITPSQLSVREKIGEGQFGVVHSGIYTSGLFAPEPMAVAVRKCRHDATNAERAQLEQEIRAVATFDHPNVIKLIGVCYMDNSLLAVFEYMVHGDLHELLKVRVPPADHDMGGITEANAEFLYIATQIALGMEYLASMSFVHRDLATRNCLVGDTRTIKIADFGLMRTSYGSDYYKMLHRSWMPVRWMSKEAIEQGRFSEASDVWSFGVTLWEIWSFGRQPYEGASNQQVIELVANRHLLECPHNCPTNIYSLMVECWHENIERRPTFSEIRSRLQSWSLASPAHSILQQHNNRAGSHSGSSGAGRPPTHQRGYPSQKLHRRVEGASPLMKRHDANYAYSEDGDSD
In the case of B1, the Km ([4]; 20 mM Mg2+) is reported as 6.69 ± 1.12 mM, the kcat ([4]; 20 mM Mg2+) is reported as 0.00333 ± 0.00033 s⁻¹ and the kcat/Km ([4]; 20 mM Mg2+) is reported as 0.5 M⁻¹ s⁻¹.

B2: CAM-1 ICD (Caenorhabditis elegans) (protein)
chain: RAKKKSQKTRHQNAHCSSAPSVINSAANSAYYRKLNGTSTPIMGRVPPHVEMTSLLPSAQHLGPPPYPMDQHLQQARRFPSQEPIDDNSYKVFEITPSQLSVREKIGEGQFGVVHSGIYTSGLFAPEPMAVAVKKCRHDATNAERAQLEQEIRAVATFDHPNVIKLIGVCYMDNSLLAVFEYMVHGDLHELLKVRVPPADHDMGGITEANAEFLYIATQIALGMEYLASMSFVHRDLATRNCLVGDTRTIKIADFGLMRTSYGSDYYKMLHRSWMPVRWMSKEAIEQGRFSEASDVWSFGVTLWEIWSFGRQPYEGASNQQVIELVANRHLLECPHNCPTNIYSLMVECWHENIERRPTFSEIRSRLQSWSLASPAHSILQQHNNRAGSHSGSSGAGRPPTHQRGYPSQKLHRRVEGASPLMKRHDANYAYSEDGDSD
Molecule B2 has a Km [4, 6] of 3.35 ± 0.57 mM, a kcat [4, 6] of 0.0422 ± 0.003 s⁻¹ and a kcat/Km [4, 6] of 12.7 M⁻¹ s⁻¹. The Km [4, 7] was 3.53 ± 0.34 mM, the kcat [4, 7] was 0.0438 ± 0.00183 s⁻¹ and the kcat/Km [4, 7] was 12.5 M⁻¹ s⁻¹.

B3: CAM-1 ICD (Caenorhabditis elegans; G599C) (protein)
chain: RAKKKSQKTRHQNAHCSSAPSVINSAANSAYYRKLNGTSTPIMGRVPPHVEMTSLLPSAQHLGPPPYPMDQHLQQARRFPSQEPIDDNSYKVFEITPSQLSVREKIGECQFGVVHSGIYTSGLFAPEPMAVAVKKCRHDATNAERAQLEQEIRAVATFDHPNVIKLIGVCYMDNSLLAVFEYMVHGDLHELLKVRVPPADHDMGGITEANAEFLYIATQIALGMEYLASMSFVHRDLATRNCLVGDTRTIKIADFGLMRTSYGSDYYKMLHRSWMPVRWMSKEAIEQGRFSEASDVWSFGVTLWEIWSFGRQPYEGASNQQVIELVANRHLLECPHNCPTNIYSLMVECWHENIERRPTFSEIRSRLQSWSLASPAHSILQQHNNRAGSHSGSSGAGRPPTHQRGYPSQKLHRRVEGASPLMKRHDANYAYSEDGDSD
Molecule B3 has a kcat [4, 8] of less than 8.3e-06 s⁻¹ and a kcat/Km [4, 8] of less than 0.0005 M⁻¹ s⁻¹.

B4: CAM-1 ICD (Caenorhabditis elegans; D744N) (protein)
chain: RAKKKSQKTRHQNAHCSSAPSVINSAANSAYYRKLNGTSTPIMGRVPPHVEMTSLLPSAQHLGPPPYPMDQHLQQARRFPSQEPIDDNSYKVFEITPSQLSVREKIGEGQFGVVHSGIYTSGLFAPEPMAVAVKKCRHDATNAERAQLEQEIRAVATFDHPNVIKLIGVCYMDNSLLAVFEYMVHGDLHELLKVRVPPADHDMGGITEANAEFLYIATQIALGMEYLASMSFVHRDLATRNCLVGDTRTIKIANFGLMRTSYGSDYYKMLHRSWMPVRWMSKEAIEQGRFSEASDVWSFGVTLWEIWSFGRQPYEGASNQQVIELVANRHLLECPHNCPTNIYSLMVECWHENIERRPTFSEIRSRLQSWSLASPAHSILQQHNNRAGSHSGSSGAGRPPTHQRGYPSQKLHRRVEGASPLMKRHDANYAYSEDGDSD
B4 gave a kcat [4, 8] of less than 8.3e-06 s⁻¹ and a kcat/Km [4, 8] of less than 0.0005 M⁻¹ s⁻¹.

B5: CAM-1 ICD (Caenorhabditis elegans; G599D) (protein)
chain: RAKKKSQKTRHQNAHCSSAPSVINSAANSAYYRKLNGTSTPIMGRVPPHVEMTSLLPSAQHLGPPPYPMDQHLQQARRFPSQEPIDDNSYKVFEITPSQLSVREKIGEDQFGVVHSGIYTSGLFAPEPMAVAVKKCRHDATNAERAQLEQEIRAVATFDHPNVIKLIGVCYMDNSLLAVFEYMVHGDLHELLKVRVPPADHDMGGITEANAEFLYIATQIALGMEYLASMSFVHRDLATRNCLVGDTRTIKIADFGLMRTSYGSDYYKMLHRSWMPVRWMSKEAIEQGRFSEASDVWSFGVTLWEIWSFGRQPYEGASNQQVIELVANRHLLECPHNCPTNIYSLMVECWHENIERRPTFSEIRSRLQSWSLASPAHSILQQHNNRAGSHSGSSGAGRPPTHQRGYPSQKLHRRVEGASPLMKRHDANYAYSEDGDSD
B5 was tested, and the kcat [4, 8] was less than 8.3e-06 s⁻¹ and the kcat/Km [4, 8] was less than 0.0005 M⁻¹ s⁻¹.

B6: ROR2 ICD (Homo sapiens) (protein)
chain: CRNKQKASASTPQRRQLMASPSQDMEMPLINQHKQAKLKEISLSAVRFMEELGEDRFGKVYKGHLFGPAPGEQTQAVAIKTLKDKAEGPLREEFRHEAMLRARLQHPNVVCLLGVVTKDQPLSMIFSYCSHGDLHEFLVMRSPHSDVGSTDDDRTVKSALEPPDFVHLVAQIAAGMEYLSSHHVVHKDLATRNVLVYDKLNVKISDLGLFREVYAADYYKLLGNSLLPIRWMAPEAIMYGKFSIDSDIWSYGVVLWEVFSYGLQPYCGYSNQDVVEMIRNRQVLPCPDDCPAWVYALMIECWNEFPSRRPRFKDIHSRLRAWGNLSNYNSSAQTSGASNTTQTSSLSTSPVSNVSNARYVGPKQKAPPFPQPQFIPMKGQIRPMVPPPQLYVPVNGYQPVPAYGAYLPNFYPVQIPMQMAPQQVPPQMVPKPSSHHSGSGSTSTGYVTTAPSNTSMADRAALLSEGADDTQNAPEDGAQSTVQEAEEEEEGSVPETELLGDCDTLQVDEAQVQLEA
B6 showed a kcat [5] of less than 8.3e-06 s⁻¹ and a kcat/Km [5] of less than 0.0005 M⁻¹ s⁻¹.

B7: ROR2 ICD (Homo sapiens; D482G) (protein)
chain: CRNKQKASASTPQRRQLMASPSQDMEMPLINQHKQAKLKEISLSAVRFMEELGEGRFGKVYKGHLFGPAPGEQTQAVAIKTLKDKAEGPLREEFRHEAMLRARLQHPNVVCLLGVVTKDQPLSMIFSYCSHGDLHEFLVMRSPHSDVGSTDDDRTVKSALEPPDFVHLVAQIAAGMEYLSSHHVVHKDLATRNVLVYDKLNVKISDLGLFREVYAADYYKLLGNSLLPIRWMAPEAIMYGKFSIDSDIWSYGVVLWEVFSYGLQPYCGYSNQDVVEMIRNRQVLPCPDDCPAWVYALMIECWNEFPSRRPRFKDIHSRLRAWGNLSNYNSSAQTSGASNTTQTSSLSTSPVSNVSNARYVGPKQKAPPFPQPQFIPMKGQIRPMVPPPQLYVPVNGYQPVPAYGAYLPNFYPVQIPMQMAPQQVPPQMVPKPSSHHSGSGSTSTGYVTTAPSNTSMADRAALLSEGADDTQNAPEDGAQSTVQEAEEEEEGSVPETELLGDCDTLQVDEAQVQLEA
In the case of B7, the kcat [5] is reported as less than 8.3e-06 s⁻¹ and the kcat/Km [5] is reported as less than 0.0005 M⁻¹ s⁻¹.
